In publication PMC8215223:

Target: GM130 (UniProt Q08379)
Assay: co-IP of GM130 with GFP-HOOK3
Settings: reference: wild type

## HOOK3 (from UniProt Q86VS8) S238A
Sites S238
  binding against the reference: weaker

## HOOK3 (from UniProt Q86VS8) S707A
Sites S707
  binding against the reference: weaker
